Data taken from US12227762B2, “Spheroid culture method for neural stem cell” (Daegu Gyeongbuk Institute of Science and Technology, priority 2019, dated 2025).

Experiments:
[1] = tested on: ORN differentiated from spheroid cultured progenitor cells; test: Calcium imaging assay of ORNs under odorant stimulation; format: cell-based, rat; conditions: for total calcium concentration stimulated by odor: odorant mixture
Experimental: To facilitate comparison with in vivo ORNs, the physiological properties of ORNs were validated using calcium imaging assays. The activity of the spheroid-cultured ORN progenitor cells was evaluated by transferring them to the laminin-coated plates, and measuring the change in fluorescence intensity by stimulating ORN activity with a mixture of odorant. In addition, the total-calcium concentration and response rate stimulated by odor were analyzed based on the results of calcium imaging.
Specifically, before performing the calcium imaging assay, the coverslip substrate was combined with a magnetic chamber (Live Cell instrument, Seoul, Korea), and the medium was replaced with KREBS Ringer's buffer containing 115 mM NaCl, 5.9 mM KCl, 2.5 mM CaCl2·2H2O, 1.2 mM MgCl2, 1.2 mM NaH2PO4, 10 mM HEPES sodium salt, and 10 mM D-glucose, and it was washed with PBS. Then, the cells were stained with fluo3-AM (life technologies, Waltham, USA). Fluorescence images of calcium markers were monitored using a confocal microscope. To stimulate the ORN, three odorants of 100 µM isovaleric acid (IVA), 2-isobutyl-3-methoxypyrazine (IBMP), and citralva, which are reported to activate the major signaling pathways of the ORN, and 100 µM of their mixture were applied to the magnetic chamber using a tubing connected to a syringe. The intracellular calcium concentration was calculated from the background corrected fluorescence ratio at 506/526 nm using a two-point calibration scheme and the equation [Ca]i=Kd(F0/Fs)(R−Rmin)/(Rmax−R).
Response rates were calculated as a ratio of the number of activated cell populations to the total number of cell populations in the confocal microscopy software.
Next, to determine the physiological properties of ORNs under single […] stimulation, the changes in intracellular calcium levels of ORNs and the changes in fluorescence intensity in cells a, b and c according to […] stimulation were monitored using 100 μM IBMP, 100 μM IVA, and 100 μM citralva.

rat ORN progenitor cells = test: Spheroid culture of ORN progenitor cells on REP-coated or laminin-coated plates (spheroid formation, diameter); format: cell-based
Experimental: For a comparison between the culture in a vessel coated with a recombinant protein (REP, TGPG[VGRGD(VGPVPG)6]20WPC) and culture in a vessel coated with laminin in whether neural stem cells are cultured into spheroids, the rat ORN progenitor cells primary cultured in Example 1-1 above were plated on REP-coated or laminin-coated cell culture plates.
Specifically, before plating the isolated ORN progenitor cells, 96-well plates (Thermo Scientific, Waltham, USA) were coated with 100 μl of 3 μM REP diluted with PBS, and they were cultured in the humidified 37° C. culture incubator containing 5% CO2 for 1 hour. The REP was prepared by the previously described method (Jeon W B, Park B H, Wei J, Park R W (2011) J Biomed Mater Res A 97 (2): 152-7). After culturing for 1 hour in the humidified incubator, the REP solution was aspirated, and 1×10^6 cells/ml of the isolated ORN progenitor cell suspension was placed and stored in the humidified incubator. MEM medium (Welgene, Gyeongsan, Republic of Korea) containing fresh 0.5% FBS (GE Healthcare lifesciences, Brussel, Belgium), 0.5% penicillin streptomycin (Thermo Fisher, Waltham, USA), kanamycin (SIGMA), and gentamicin (SIGMA) was replaced every 24 hours.
Next, in order to check the optimal conditions for spheroid formation, the diameter and shape of the spheroids were observed according to the seeding populations and the concentration of REP by measuring the diameter of the formed spheroids.

[2] = tested on: spheroid ORN progenitor cells; test: qPCR of ORN developmental markers after differentiation of spheroid ORN progenitor cells on laminin-coated plate; format: cell-based, rat
Experimental: Spheroid ORN progenitor cells were differentiated and their developmental characteristics were monitored using qPCR and ICC.
Next, in order to analyze the differentiation of spheroid ORN progenitor cells in-depth, the transcriptional levels of ORN developmental markers such as ac3, omp, map2 and ncam, were analyzed by qPCR. Adenyl cyclase III (AC3), an important protein in the ORN, plays an important role in the olfactory signaling cascade. Olfactory marker protein (OMP) is also a protein found in fully matured ORNs. Microtubule associated protein 2 (MAP2) and NSE are expressed in differentiated neurons. Therefore, these markers were used as neuronal maturation markers. Neural cell adhesion molecule (NCAM) was used as a neural cell marker.

[3] = Surface properties of coated coverslips by AFM and SEM; format: physicochemical
Experimental: In order to determine effects of the REP on spheroid formation, surface properties of REP-coated coverslips were observed using atomic force microscopy (AFM) and scanning electronic microscopy (SEM).
Specifically, for AFM and SEM image observation, glass coverslips were coated with 3 μM REP and 25 μg/ml laminin. To coat the coverslip with REP, 3 μM REP solution was poured onto the coverslip and incubated at 37° C. for 1 hour. Thereafter, the coverslip was washed three times with warmed autoclaved distilled water at 37° C. and dried in a hood. To prepare a laminin-coated coverslip, 25 μg/ml laminin was diluted with autoclaved distilled water and poured over the coverslip and the coverslip was stored at 37° C. overnight. Thereafter, the coverslip was washed three times with pressurized distilled water and dried with a critical point dryer (EM CPD 300; Leica, Wetzlar, Germany). AFM (XE-150; Park Systems, Suwon, Republic of Korea) was performed in non-contact mode with a scanning speed of 0.5 Hz. Before SEM observation, the coverslip was coated with osmium (Osmium plasma coater, Vacuum Devices Inc., Mito, Japan), and SEM was performed at a chamber pressure of […].

[4] = tested on: spheroid ORN progenitor cells; test: Calcein assay of cell viability of spheroid ORN progenitor cells; format: cell-based, rat; conditions: plate coated with 3 μM REP
Experimental: Since it is essential for neural stem cells to maintain cell viability while cultured into spheroids, a calcein assay was performed to evaluate the viability of ORN progenitor cells cultured into spheroids according to the cultivation time.
Specifically, calcein assay reagent (calcein red-orange, AM; Invitrogen, Carlsbad, USA) is used to evaluate cell viability. Spheroid ORN progenitor cells were washed three times with Dulbecco's phosphate-buffered saline (DPBS; Gibco® by Life Technologies™, Waltham, USA), treated with 3 μM calcein-AM solution, and cultivated at 37° C. for 30 minutes. Cell viability in each well was quantified by measuring optical density at 517 nm with a fluorescence reader (Gemini EM; Molecular Devices, San Jose, USA). The total OD517mm value was normalized to the value measured in spheroid ORN progenitor cells on the first day, and the decrease in fluorescence intensity indicates decrease in viability according to environmental conditions and cell loss according to changes of culture media.

[5] = tested on: spheroid ORN progenitor cells; test: qRT-PCR of stem cell markers in spheroid ORN progenitor cells; format: cell-based, rat; conditions: REP-coated plates
Experimental: In order to evaluate whether the spheroid-cultured ORN progenitor cells maintain a stemness, mRNA levels of stem cell markers were analyzed by quantitative real-time polymerase chain reaction (qRT-PCR). SOX2, Ki67, and nestin were used as specific marker genes for neural stem cells.
Specifically, total RNA was obtained from spheroid ORN progenitors using Trizol (Trizol® Reagent; Life technologies, Waltham, USA), and cDNA was synthesized by reverse transcription. qRT-PCR was performed under conditions of 40-45 repetitions at 95° C. for 30 sec, at 60° C. for 30 sec, and at 72° C. for 30 sec using a SYBR Green PCR Master Mix Kit (QuantiTect® SYBR® Green PCR Kit; QIAGEN, Hilden, Germany) on a Rotor-Gene Q (QIAGEN, Hilden, Germany). Primers of the sequences shown in Table 1 were purchased from GenoTeck (Daejeon, Korea) and Bionics (Daejeon, Korea). The housekeeping gene cyclophilin A was used as an internal standard.

[6] = tested on: ORN differentiated from cryopreserved spheroid progenitor cells; test: Cryopreservation, thawing and differentiation of spheroid ORN progenitor cells, calcium imaging; format: cell-based, rat; conditions: 5 day spheroids cryopreserved 35 days, thawed on laminin
Source text: Since the neural stem cells cultured into spheroids need to be stably preserved for a long period of time for efficient use, in order to determine whether or not the cell storage period is extended through cryopreservation, spheroid-cultured ORN progenitor cells were cryopreserved for 35 days and thawed to test their physiological properties.

[7] = day 3 spheroids, differentiated 72 hours on laminin-coated plate

COc1nccnc1CC(C)C [IBMP, 2-isobutyl-3-methoxypyrazine, reference compound]
activation of ORN cell a (intracellular calcium fluorescence) ([1]; single odorant, 100 μM): activated

laminin [reference compound]
culture outcome on coated plate (rat ORN progenitor cells; plate coated with laminin): neurites outgrowth occurred and the cells were differentiated without spheroid culture | expression level of nsetin ([2]; laminin group, days 3, 5 and 10): about 0.1 fold

CC(C)CC(=O)O [IVA, isovaleric acid, reference compound]
activation of ORN cell a (intracellular calcium fluorescence) ([1]; single odorant, 100 μM): activated | activation of ORN cell b (intracellular calcium fluorescence) ([1]; single odorant, 100 μM): activated | activation of ORN cell c (intracellular calcium fluorescence) ([1]; single odorant, 100 μM): activated

CC(C)=CCCC(C)=CC#N [citralva, reference compound]
activation of ORN cell a (intracellular calcium fluorescence) ([1]; single odorant, 100 μM): activated | activation of ORN cell c (intracellular calcium fluorescence) ([1]; single odorant, 100 μM): activated

B1: TGPG[VGRGD(VGVPG)6]20WPC (protein)
chain: TGPGVGRGDVGVPGVGVPGVGVPGVGVPGVGVPGVGVPGVGRGDVGVPGVGVPGVGVPGVGVPGVGVPGVGVPGVGRGDVGVPGVGVPGVGVPGVGVPGVGVPGVGVPGVGRGDVGVPGVGVPGVGVPGVGVPGVGVPGVGVPGVGRGDVGVPGVGVPGVGVPGVGVPGVGVPGVGVPGVGRGDVGVPGVGVPGVGVPGVGVPGVGVPGVGVPGVGRGDVGVPGVGVPGVGVPGVGVPGVGVPGVGVPGVGRGDVGVPGVGVPGVGVPGVGVPGVGVPGVGVPGVGRGDVGVPGVGVPGVGVPGVGVPGVGVPGVGVPGVGRGDVGVPGVGVPGVGVPGVGVPGVGVPGVGVPGVGRGDVGVPGVGVPGVGVPGVGVPGVGVPGVGVPGVGRGDVGVPGVGVPGVGVPGVGVPGVGVPGVGVPGVGRGDVGVPGVGVPGVGVPGVGVPGVGVPGVGVPGVGRGDVGVPGVGVPGVGVPGVGVPGVGVPGVGVPGVGRGDVGVPGVGVPGVGVPGVGVPGVGVPGVGVPGVGRGDVGVPGVGVPGVGVPGVGVPGVGVPGVGVPGVGRGDVGVPGVGVPGVGVPGVGVPGVGVPGVGVPGVGRGDVGVPGVGVPGVGVPGVGVPGVGVPGVGVPGVGRGDVGVPGVGVPGVGVPGVGVPGVGVPGVGVPGAAAVGRGDAVGVPGVGVPGVGVPGVGVPGVGVPGVGVPGAAWPC
modifications: TGPG[VGRGD(VGVPG)6]20WPC
notes: recombinant elastin-derived protein with VGVPG pentapeptide and RGD integrin receptor ligand, used as culture vessel coating
spheroid diameter (rat ORN progenitor cells; 1 μM REP coating): approximately 20 μm | spheroid morphology (rat ORN progenitor cells; 1 μM REP coating): unstable spheroid morphology and cell aggregation | mean diameter of spheroids (rat ORN progenitor cells; 1 μM REP coating, 24 hours after cell inoculation): 24.2±0.7 μm | mean diameter of spheroids (rat ORN progenitor cells; 3 μM REP coating, 3rd day): 77.5±3.3 μm | mean diameter of spheroids (rat ORN progenitor cells; 3 μM REP coating, 24 hours after cell inoculation): 62.6±2.2 μm | mean diameter of spheroids (rat ORN progenitor cells; 5 μM REP coating, 5th day): 69.4±3.6 μm | mean diameter of spheroids (rat ORN progenitor cells; 5 μM REP coating, 24 hours after cell inoculation): 56.2±2.8 μm | time for ORN progenitor cells to aggregate to form spheroids (rat ORN progenitor cells; plate coated with REP): ≤ 24 h | height and roughness relative to laminin-coated surface ([3]; 3 μM REP vs 25 μg/ml laminin): 23.8 times | roughness (AFM) ([3]; coverslip coated with 3 μM REP): 148.3±15.9 nm | fluorescence intensity (cell viability) normalized to first day ([4]; 3rd day): 1.05±0.03 times | fluorescence intensity (cell viability) normalized to first day ([4]; 10th day): 0.087±0.01 times | normalized relative mRNA level of Ki67 ([5]; day 3): 8.6±0.8 fold | normalized relative mRNA level of SOX2 ([5]; day 3): 8.4±0.8 fold | normalized relative mRNA level of nestin ([5]; day 3): 11.7±1.1 fold | NSE expression ([5]; days 3, 5 and 10): approximately 0.1 fold | expression level of ac3 [2, 7]: 6.3±0.7 fold | expression level of map2 [2, 7]: 8.7±0.5 fold | expression level of nse [2, 7]: 9.1±0.8 fold | expression level of omp [2, 7]: 6.3±0.7 fold | total calcium concentration stimulated by odor ([1]; ORNs spheroid cultured for 3 days): 195.7 ± 24.0 nM | total calcium concentration stimulated by odor ([1]; ORNs spheroid cultured for 5 days): 205.3 ± 24.9 nM | total calcium concentration stimulated by odor ([1]; ORNs spheroid cultured for 10 days): 205.4 ± 22.3 nM | response rate (activated cells / total cells) ([1]; cultivation time 3 days): 29.9±2.5% | response rate (activated cells / total cells) ([1]; cultivation time 5 days): 27.6±3.0% | response rate (activated cells / total cells) ([1]; cultivation time 10 days): 28.1±4.2% | response rate stimulated by odor, compared to day 5 [6]: 72.3% | total-calcium concentration stimulated by odor, compared to day 5 [6]: 72.5%
